# Reference: PMC9618391 (2022)
# B1: wild-type human sodium/iodide symporter (hNIS) [human] / μ1B (AP1M2) expressed from cDNA in COS-7 cells [not stated] (parent complex)
# chain 1: MEAVETGERPTFGAWDYGVFALMLLVSTGIGLWVGLARGGQRSAEDFFTGGRRLAALPVGLSLSASFMSAVQVLGVPSEAYRYGLKFLWMCLGQLLNSVLTALLFMPVFYRLGLTSTYEYLEMRFSRAVRLCGTLQYIVATMLYTGIVIYAPALILNQVTGLDIWASLLSTGIICTFYTAVGGMKAVVWTDVFQVVVMLSGFWVVLARGVMLVGGPRQVLTLAQNHSRINLMDFNPDPRSRYTFWTFVVGGTLVWLSMYGVNQAQVQRYVACRTEKQAKLALLINQVGLFLIVSSAACCGIVMFVFYTDCDPLLLGRISAPDQYMPLLVLDIFEDLPGVPGLFLACAYSGTLSTASTSINAMAAVTVEDLIKPRLRSLAPRKLVIISKGLSLIYGSACLTVAALSSLLGGGVLQGSFTVMGVISGPLLGAFILGMFLPACNTPGVLAGLGAGLALSLWVALGATLYPPSEQTMRVLPSSAARCVALSVNASGLLDPALLPANDSSRAPSSGMDASRPALADSFYAISYLYYGALGTLTTVLCGALISCLTGPTKRSTLAPGLLWWDLARQTASVAPKEEVAILDDNLVKGPEELPTGNKKPPGFLPTNEDRLFFLGQKELEGAGSWTPCVGHDGGRDQQETNL
# chain 2: MSASAVFILDVKGKPLISRNYKGDVAMSKIEHFMPLLVQREEEGALAPLLSHGQVHFLWIKHSNLYLVATTSKNANASLVYSFLYKTIEVFCEYFKELEEESIRDNFVIVYELLDELMDFGFPQTTDSKILQEYITQQSNKLETGKSRVPPTVTNAVSWRSEGIKYKKNEVFIDVIESVNLLVNANGSVLLSEIVGTIKLKVFLSGMPELRLGLNDRVLFELTGRSKNKSVELEDVKFHQCVRLSRFDNDRTISFIPPDGDFELMSYRLSTQVKPLIWIESVIEKFSHSRVEIMVKAKGQFKKQSVANGVEISVPVPSDADSPRFKTSVGSAKYVPERNVVIWSIKSFPGGKEYLMRAHFGLPSVEKEEVEGRPPIGVKFEIPYFTVSGIQVRYMKIIEKSGYQALPWVRYITQSGDYQLRTS
# Variants of: B1
# Assay: co-immunoprecipitation with Western blot quantification; COS-7 cells cotransfected with hNIS and μ1B; IP α-μ1B, WB α-hNIS; parent: 100; read off a plot
row,Variant,percent of parent
1,chain 1 L583A,~5 % Relative to hNIS WT
2,"chain 1 L562A, chain 1 L563A",~32 % Relative to hNIS WT
3,chain 1 L121A,~60 % Relative to hNIS WT

# The remaining lines, values ahead:
row,percent of parent,Variant
1,~84 % Relative to hNIS WT,chain 1 L594A
2,~100 % Relative to hNIS WT,chain 1 L587A
3,~83 % Relative to hNIS WT,chain 1 Y120A
4,~61 % Relative to hNIS WT,chain 1 Y118A
